Data published in patent US20250109199A1.

Assays:
[1] = target: EEEV virus-like particles (VLPs), strain PE-6 (Eastern equine encephalitis virus, strain PE-6)
[2] = target: EEEV virus-like particles (VLPs), strain FL93-939, wild type (Eastern equine encephalitis virus, strain FL93-939)

## monovalent VLDLR LA(1-2) (from UniProt P98155 31-110) (receptor)
[1]
  Kd: 1 µM
  fold higher affinity than LA(2-3): 10 fold

## monovalent VLDLR LA(1-3) (from UniProt P98155 31-151) (receptor)
[1]
  Kd: 0.0338 µM

## monovalent VLDLR LA(1-4) (from UniProt P98155 28-190) (receptor)
[1]
  Kd: 0.037 µM

## monovalent VLDLR LA(1-5) (from UniProt P98155 28-231) (receptor)
[1]
  Kd: 0.0145 µM

## monovalent VLDLR LA(1-6) (from UniProt P98155 28-275) (receptor)
[1]
  Kd: 0.015 µM
[2]
  Kd: 0.05 µM

## monovalent VLDLR LA(2-3) (from UniProt P98155 70-151) (receptor)
[1]
  Kd: 14 µM
